# Laboratory results taken from patent US20170022553, “NUCLEIC ACID SEQUENCING METHODS AND SYSTEMS” (OMNIOME, INC., published 2017).
# B1: ALK C4493A/4496-4509AS primer-template (dsDNA)
# DNA 1: GTGAGCCTGCAATCCCTGCCCCGGTTCATCCTGATGGAGCTCATGGCGGG
# DNA 2: CCCGCCATGAGCTC
# modifications: 3' inverted dT on template
# B2: ALK-G1 primer-template (dsDNA)
# DNA 1: GTGAGCCTGCAATCCCTGCCCCGGTTCATCCTGCTGGAGCTCATGGCGGG
# DNA 2: CCCGCCATGAGCTCCA
# modifications: 3' inverted dT on template
# B3: ALK-G2 primer-template (dsDNA)
# DNA 1: GTGAGCCTGCAATCCCTGCCCCGGTTCATCCTGCTGGAGCTCATGGCGGG
# DNA 2: CCCGCCATGAGCTCCAGCA
# modifications: 3' inverted dT on template
# B4: ALK-G4 primer-template (dsDNA)
# DNA 1: GTGAGCCTGCAATCCCTGCCCCGGTTCATCCTGCTGGAGCTCATGGCGGG
# DNA 2: CCCGCCATGAGCTCCAGCAGGATGAACC
# modifications: 3' inverted dT on template
# B5: ALK wild-type 4460-4509S/4496-4509AS primer-template (dsDNA)
# DNA 1: GTGAGCCTGCAATCCCTGCCCCGGTTCATCCTGCTGGAGCTCATGGCGGG
# DNA 2: CCCGCCATGAGCTC
# modifications: 3' inverted dT on template
# Tests used:
# [1] = biological target: T1, Bsu DNA polymerase I large fragment (Bacillus subtilis, UniProt O34996 O34996:297-880); assay: BLI; correct dNTP, Ni(II), 200 mM KCl, 200 mM K glutamate, 30 C; conditions: tags: New England Biolabs M0330L; label: 5' biotin on template; primed template with 5' template overhang
# Experimental: Primer-template duplex was diluted (100 nM) into Annealing Buffer. Wash buffer was 20 mM Tris, pH 8.0, 200 mM KCl, 200 mM potassium glutamate, 0.01% (v/v), Tween-20, 100 μg/mL bovine serum albumin, 1.0 mM dithiothreitol. Binding Buffer was Wash Buffer containing 2.0 mM Ni(II)SO₄. Reaction Buffer was 20 mM Tris, pH 8.0, 50 mM KCl, MgCl₂ (10 mM), 0.01% (v/v) Tween-20, 100 μg/mL bovine serum albumin, 1.0 mM dithiothreitol. EDTA Wash Buffer was Binding Buffer containing 1.0 mM EDTA. Buffer containing Primer-Template (PT), Binding buffer containing one dNTP and Reaction Buffer were loaded (200 μL/well) into a Greiner 96-well black microplate (Sigma-Aldrich, St. Louis, Mo.; catalog number M9685), and PCR-grade mineral oil (Sigma-Aldrich, St. Louis, Mo.; catalog no. M8662) was applied (75 μL/well). High-precision streptavidin biosensors (Pall ForteBio Corp., Menlo Park, Calif.; catalog number 18-5117) were re-hydrated in Annealing Buffer for approximately 10 minutes before use. The Octet QK biosensor system (Pall ForteBio Corp., Menlo Park, Calif.) was set for 30° C. operation and was programmed to coat the biosensors with Primer-Template and wash away unbound Primer-Template with Wash Buffer. […]
# [2] = biological target: T1, Bsu DNA polymerase I large fragment; assay: BLI; dGTP, 1 mM Ni(II), 30 C; highest amplitude; conditions: tags: New England Biolabs M0330L; label: 5' biotin on template; primed template with 5' template overhang
# Experimental: (§1) Primer-template duplex was diluted (100 nM) into Annealing Buffer. Wash buffer was 30 mM Tris, pH 8.0, 160 mM KCl, 160 mM potassium glutamate, 0.01% (v/v), Tween-20, 100 μg/mL bovine serum albumin, 1.0 mM dithiothreitol. Binding Buffer was Wash Buffer containing Bsu Pol I (68 Unit/mL) 100 μM dGTP+1.0 mM Ni(II)SO₄. Reaction Buffer was Wash Buffer containing Bsu (1 U/mL), MgCl₂ (80 μM), dGTP (28.1 μM), α-S-dGTP (162 μM). EDTA Wash Buffer was Wash Buffer without Ni(II)SO₄ but containing 1.0 mM EDTA. Buffer containing Primer-Template (PT), Binding Buffer and Reaction Buffer containing were loaded (200 μL/well) into a Greiner 96-well black microplate (Sigma-Aldrich, St. Louis, Mo.; catalog number M9685), and PCR-grade mineral oil (Sigma-Aldrich, St. Louis, Mo.; catalog no. M8662) was applied (75 μL/well). […]
# (§2) In assays for binding to biosensor coated with ssDNA primer-template, Bsu Pol I enzyme bound strongly to the primer/template-coated biosensor in the presence of correct dGTP (FIGS. 18A and 18B). […] The association phase for formation of the ternary complex was analyzed for how the association kinetic parameters may be affected by the number of nucleotides for incorporation into the homopolymer of the primer/template.
# [3] = biological target: T1, Bsu DNA polymerase I large fragment; assay: BLI; dGTP, 1 mM Ni(II), 30 C; lower amplitude, higher kobs than ALK-G1; conditions: tags: New England Biolabs M0330L; label: 5' biotin on template; primed template with 5' template overhang
# Experimental: as §1, §2
# [4] = biological target: Bst DNA polymerase, full length (Bacillus stearothermophilus, UniProt P52026 P52026:1-876); assay: BLI; correct dNTP, 300 mM KCl, 30 C; minimal binding without dNTP; conditions: tags: New England Biolabs M0328L; label: 5' biotin on template; primed template with 5' template overhang
# Experimental: Primer-template duplex was diluted (100 μM) into Annealing Buffer. Binding buffer was 50 mM Tris, pH 8.0, 300 mM KCl, 0.1% (v/v) Triton-X100, 100 μg/mL bovine serum albumin. Reaction Buffer was Binding Buffer containing 10 mM MgCl₂. Buffer containing Primer-Template (PT), Binding buffer containing one dNTP, and Reaction Buffer were loaded (200 μL/well) into a Greiner 96-well black microplate (Sigma-Aldrich, St. Louis, Mo.; catalog number M9685), and PCR-grade mineral oil (Sigma-Aldrich, St. Louis, Mo.; catalog no. M8662) was applied (75 μL/well). Streptavidin (SA) Biosensors (Pall ForteBio Corp., Menlo Park, Calif.; catalog number 18-5019) were re-hydrated in Annealing Buffer for approximately 10 minutes before use. The Octet QK biosensor system (Pall ForteBio Corp., Menlo Park, Calif.) was set for 30° C. operation and was programmed to coat the biosensors with Primer-Template and wash away unbound Primer-Template with Binding Buffer. Biosensors were transferred to Binding Buffer containing 136 Unit/mL Bst DNA Polymerase and 200 μM dNTP (dATP, dTTP, dGTP or dCTP) as indicated (association phase) followed by Reaction Buffer for dNTP incorporation. Biosensors were transferred to Reaction Buffer containing Bst DNA Polymerase (136 Unit/mL) without dNTP to promote nick translation via 5′-3′ exonuclease activity. […]
# T1 sequence (O34996 297-880, one chain of several): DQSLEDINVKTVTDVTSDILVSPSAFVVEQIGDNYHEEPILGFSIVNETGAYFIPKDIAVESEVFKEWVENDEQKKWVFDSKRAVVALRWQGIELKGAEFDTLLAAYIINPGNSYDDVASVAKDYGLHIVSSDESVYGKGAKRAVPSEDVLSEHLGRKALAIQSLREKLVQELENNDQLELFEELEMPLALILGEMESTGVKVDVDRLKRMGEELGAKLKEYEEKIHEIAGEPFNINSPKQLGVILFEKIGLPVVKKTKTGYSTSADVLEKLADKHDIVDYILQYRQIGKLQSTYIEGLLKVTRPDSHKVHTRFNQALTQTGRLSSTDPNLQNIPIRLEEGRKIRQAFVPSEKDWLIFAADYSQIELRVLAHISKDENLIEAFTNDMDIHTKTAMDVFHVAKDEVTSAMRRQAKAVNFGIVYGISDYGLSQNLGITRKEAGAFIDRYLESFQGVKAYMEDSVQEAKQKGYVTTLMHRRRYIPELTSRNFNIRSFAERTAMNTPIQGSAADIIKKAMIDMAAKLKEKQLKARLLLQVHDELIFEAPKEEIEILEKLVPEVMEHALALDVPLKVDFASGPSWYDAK
# Sequence of Bst DNA polymerase, full length (P52026 whole entry, one chain of several): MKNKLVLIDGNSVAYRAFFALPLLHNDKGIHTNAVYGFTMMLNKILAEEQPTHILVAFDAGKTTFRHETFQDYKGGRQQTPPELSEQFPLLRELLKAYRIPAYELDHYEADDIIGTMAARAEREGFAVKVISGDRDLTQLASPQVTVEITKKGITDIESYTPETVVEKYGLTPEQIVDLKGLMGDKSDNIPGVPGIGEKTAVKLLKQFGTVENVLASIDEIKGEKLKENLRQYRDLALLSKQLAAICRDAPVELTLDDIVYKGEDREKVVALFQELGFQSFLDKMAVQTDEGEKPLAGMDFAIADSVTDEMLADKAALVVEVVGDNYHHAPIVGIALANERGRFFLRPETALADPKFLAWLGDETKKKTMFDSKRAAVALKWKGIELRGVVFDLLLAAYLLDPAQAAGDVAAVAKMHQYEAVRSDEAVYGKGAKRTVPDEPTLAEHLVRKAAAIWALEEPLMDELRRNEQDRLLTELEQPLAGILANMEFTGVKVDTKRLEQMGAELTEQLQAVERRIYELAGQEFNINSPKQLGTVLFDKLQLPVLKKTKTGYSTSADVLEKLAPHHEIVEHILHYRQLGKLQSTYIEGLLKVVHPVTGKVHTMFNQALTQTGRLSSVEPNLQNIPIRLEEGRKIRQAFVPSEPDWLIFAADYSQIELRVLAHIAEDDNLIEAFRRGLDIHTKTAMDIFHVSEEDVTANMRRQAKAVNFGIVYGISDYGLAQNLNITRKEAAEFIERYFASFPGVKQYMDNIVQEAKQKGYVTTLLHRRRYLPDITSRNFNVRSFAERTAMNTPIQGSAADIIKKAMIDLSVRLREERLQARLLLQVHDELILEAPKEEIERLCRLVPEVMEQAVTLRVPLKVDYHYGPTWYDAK
binder,measurement,setting,value
B1,binding result,[1],binds
B2,binding result,[2],binds
B3,binding result,[3],binds
B4,binding result,[3],binds
B5,binding result,[4],binds
